One series deals with α2-adrenoceptors. Put plainly: α2-adrenoreceptor membrane binding (3H-RS-79948-197).
For series [1], the system named is MCP-1 induced THP-1 migration. The experiment in a line: THP-1 trans-well migration assay, MCP-1 as chemoattractant. The format is cell-based, human. Summed up: (§1)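 5×10^4 THP-1 cells with serially diluted peptide in upper chamber, 5 µm filter, recombinant human chemokine 50 ng/ml (5.9 nM) in lower chamber. Incubated 4 h at 37 °C. Migrated cells counted by MTT staining, A595 read against a THP-1 standard curve.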

The test system of another series is HIV. The series is classed as cell-based. To be noted: ns = not significantly different from control.
The target of the next series is CCR5/CXCR4. The experiment in a line: Affinity for CCR5/CXCR4. The series is classed as binding. The note with it: read-out: affinity constant for CCR5/CXCR4.
For a further series, the system named is gp120. To be noted: ns = not significantly different from control; >100 = ED50 not determined.
The target of series [2] is T1, Duffy Antigen Receptor for Chemokines (DARC) (Homo sapiens, UniProt Q16570).
T1 sequence (Q16570 1-336): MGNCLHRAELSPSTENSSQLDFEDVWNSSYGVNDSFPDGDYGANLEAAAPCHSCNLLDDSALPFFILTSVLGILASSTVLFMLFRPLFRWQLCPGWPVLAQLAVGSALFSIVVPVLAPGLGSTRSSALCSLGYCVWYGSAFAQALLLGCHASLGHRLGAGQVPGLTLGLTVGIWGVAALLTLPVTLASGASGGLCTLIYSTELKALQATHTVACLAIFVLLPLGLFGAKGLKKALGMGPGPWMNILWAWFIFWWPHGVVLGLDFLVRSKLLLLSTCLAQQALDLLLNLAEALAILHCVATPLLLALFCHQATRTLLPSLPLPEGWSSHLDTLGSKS
The experiment in a line: DARC binding: competition with 125I-MCP-1 on red blood cells.

Series [3] concerns MIP1α induced THP-1 migration. The experiment in a line: THP-1 trans-well migration assay, MIP1α as chemoattractant. The format is cell-based, human. To be noted: ns = not significantly different from control. In a few lines: as §1
Series [4] relates to SDF-1α induced THP-1 migration. The experiment in a line: THP-1 trans-well migration assay, SDF-1α as chemoattractant. The series is classed as cell-based, human. To be noted: ns = not significantly different from control. Summed up:
as §1

The conditions of series [5]: rat, in vivo.
The conditions of series [6]: mouse, in vivo, sc.

Positions of bridges follow the written chain, without caps; N, C: chain ends. Non-standard residues stand in square brackets, D forms with d. No end group written: not given here. A value given as a limit tells only on which side of the number the result lay.

As for `NC(=O)C1C(O)CCC2CN3CCc4c([nH]c5ccccc45)C3CC21` (centres unmarked) [Y-II, Yohimban-17-amide], the “selectivity for chemokine inhibition of alpha-adrenoreceptor binding” value with α2-adrenoceptors is listed as 1,500 fold. For the same compound, the EC50 in [1] (Homo sapiens, THP-1, read-out: ED50 versus MCP-1 induced chemotaxis of THP-1) turned out to be 500 pM.
For “Vaekpcksstirrys (V[dA][dE][dK][dP][dC][dK][dS][dS][dT][dI][dR][dR][dY][dS]) [LRD peptide 2(1-15)[MCP-1]]”, in the series with HIV, the “% virus inhibition” value was 72%. Moreover, the Kd at CCR5/CXCR4 was at most 100000 pM. Moreover, the “gp120 ED-50” value in the series with gp120 is 3 µM. Besides, the “MCP-1 ED-50” value in [1] (ns = not significantly different from control) was “ns”. Besides, the “decrease in Duffy binding relative to the LFL peptide” value in series [2] is given as around 100 fold. Besides, the “association (affinity) constant for DARC” value in series [2] (red blood cells) is 25 µM. Also, the “MIPIa ED-50” value in [3] is listed as “ns”. Moreover, the “SDF1a ED-50” value in [4] is reported as “ns”.
On to “^3H-CRD-L-Leu4Ile11Cys13 peptide 3(3-12)[MCP-1]: diastereomer of CRD-Leu4Ile11Cys13 peptide 3(3-12)[MCP-1] with L-leucine instead of D-leucine ([dC][dQ][dI][dW][dK][dQ][dK][dP][dD]L[dC]-NH2; disulfide 1-11; also: 3H-labelled, site not given here)”, for which the “activity in the MCP-1 induced THP-1 migration assay, in words” value in series [1] is given as “retained functional activity”. For the same compound, in [5], the A entry was “A: 48.88 μg/mL”, the AUC worked out at 31430 ng·h/mL, the B result is “B: 63.64 μg/mL” and the Maximal concentration was 1,710 ng mL^−1. Also, in series [5], the Maximal concentration/dose is recorded as 0.000017; the Vd was determined as 0.36 L/kg; the “dose accounted for in the 25 tissues and organs assayed at 3 hours post injection” value is recorded as “about 11 % i.d”; the “dose excreted in urine over the first 2 hours” value is above 80 % i.d. For the same compound, in [5], the “injected radioactivity in the urine with a mass consistent with the intact, cyclized structure” value is above 80%; the “serum concentration at 30 minutes” value is reported as 591 ng/g; the “share of the total counts in the unwashed cell pellet at 10 minutes” value is below 12%; the α entry is on record as “α: 9.59”. In addition, in [5], the β result is listed as “β: 2.42”. For the same compound, in series [5] (iv), the “dose eliminated in the urine over the first 4 hours” value was 86.6+/−16.5 % i.d; the “injected dose present in blood by four hours post injection” value is “about 0.1%”; the “serum concentration at 10 minutes post injection, females” value turned out to be 1238 ± 138 ng/mL; the “serum concentration at 10 minutes post injection, males” value turned out to be 1141 ± 283 ng/mL. In series [5] (iv), the “serum level at 10 minutes, females” value is recorded as 12.45±1.39 % of the injected dose and the “serum level at 10 minutes, males” value was found to be 14.38±3.46 % i.d. Moreover, in [5] (iv, 100 ug), the Elimination half-life was 11.4 min, the “alpha-phase T1/2” value is 4.2 min and the “beta-phase T1/2” value was 17.4 min. For the same compound, in [5] (iv, 2 h), the “dose remaining in the blood by 2 hours” value was “less than 1 % i.d”. For the same compound, in series [6], the “average serum concentration at 30 minutes post injection” value amounted to 503 ng/g.

The record behind these values is patent publication US7989466B2, “Methods to inhibit or augment an inflammatory response” (Cambridge Enterprise Limited, priority 1999, dated 2011).
